From US6884600B1, “Protein phosphatase-1 catalytic subunit interactions” (Medical Research Council London, priority 1996, dated 2005)

Legend:
M21 subunit = assay: Far Western blotting: interaction with the M21 subunit; type: binding, chicken; conditions: for recognised by digoxigenin-labelled M21 subunit in Far Western blotting: probe 0.2 μg/ml
Method: A) PP1M 5 μg (track 1), 10 μg bacterial extract containing M110-(R714-I1004) (track 2), MBP-M110-(R714-I004) 1 μg (track 3), MBP-M110-(R714-L934) 1 μg (track 4), MBP-M110-(K933-I1004) 1 μg (track 5), MBP 1 μg (track 6), M110-(M1-E309) 2 μg (lane 7) and M110-(M1-S477) 2 μg (track 8) were run on a 12% SDS/polyacrylamide gel and stained with Coomassie Blue. B) same as A) except that 10-fold less protein was electrophoresed and after transfer to nitrocellulose the proteins were probed with digoxigenin-labelled M21 subunit (0.2 μg/ml). C) same as B) except that, after electrophoresis, the proteins were transferred to nitrocellulose and probed with digoxigenin-labelled M21-(M1-L146) (0.2 μg/ml).
A) GST-M21 5 μg (track 1), M21 5 μg (track 2), M21-(M1-L146) 5 μg (track 3), M21-(M1-E110) 20 μg (track 4) and M21-(E110-K186) 5 μg (track 5) were run on 16.5% polyacrylamide gels and stained with Coomassie Blue. The marker proteins ovalbumin (43 kDa) and carbonic anhydrase (29 kDa) are indicated. B) GST-M21 0.5 μg (track 1), M21 0.5 μg (track 2), M21-M1-L146) 0.5 μg (track 3), M21-(M1-E110) 5 μg (track 4) and M21-(E110-K186) 5 μg (track 5) were electrophoresed as in A) and after transfer to nitrocellulose the blots were probed with digoxigenin-labelled MBP-M110-(K933-I1004) (0.2 μg/Ml). C) same as B) except that, after electrophoresis, the proteins were transferred to nitrocellulose and probed with digoxigenin-labelled M21 subunit (0.2 μg/ml).
PP1M (0.5 μAg) was electrophoresed on a 12% SDS/polyacrylamide gel, transferred to nitrocellulose and probed with digoxigenin-labelled M21 subunit (0.2 μg/ml) (track 1) or digoxigenin-labelled M21-(M1-L146) (0.2 μg/ml) (track 2). The positions of the M110 subunit, the M21 subunit and PP1c are marked.
Proteins were labelled with digoxigenin and Far Western analyses carried out as described, except that the digoxigenin-labelled probe was used at a concentration of 0.2 μg/ml instead of 2 μg/ml. SDS/polyacrylamide gel electrophoresis was carried out on 7.5-15% gels according to Laemmli and on 16.5% gels according to Schagger and von Jagow. Protein was estimated according to Bradford.

myosin = target: T1, myosin (Gallus gallus, UniProt P10587); assay: Myosin binding assay (pelleting with myosin); parameters: species or system chicken; conditions: myosin 1 μM, 15 min 0° C.
T1 construct: from tissue; host or cells: chicken gizzard
Method: The PP1 catalytic subunit (PP1c), PP1M, or PP1M lacking the M21 subunit, PP1M(ΔM21), each at 30 nM, were incubated for 15 min at 0° C. with 1 μM myosin and centrifuged (see Methods of Example 3). […] The results shown are the average (±S.E.M.) for three separate experiments each assayed in duplicate.
(A); PP1M, M110-(M1-S477) and GST-M110-(M377-K976), each at 30 nM were incubated for 15 min at 0° C. with 1 μM myosin and centrifuged. The supernatants (S), resuspended pellets (P) and the suspension before centrifugation (T, total) were electrophoresed on 12% SDS/polyacrylamide gels, transferred to nitrocellulose and immunoblotted with antibodies raised against the PP1M holoenzyme. No protein was pelleted in the absence of myosin (not shown). The positions of the marker proteins myosin heavy chain (200 kDa), glycogen phosphorylase (97 kDa), bovine serum albumin (66 kDa), ovalbumin (43 kDa), carbonic anhydrase (29 kDa) and soybean trypsin inhibitor (20 kDa) are indicated. (B) The experiments were carried out as in (A), except that the M110 fragments and M21 subunit were used at 100 nM, the 8.5 kDa M110-(K933-I1004) fragment was electrophoresed on a 16.5% polyacrylamide gel and immunoblotting was carried out with affinity purified antibodies (see Methods). A small amount of M110-(R714-I1004) pelleted in the absence of myosin. […] No other protein was pelleted in the absence of myosin.
(A); Myosin (1 μM) was mixed with 50 μM, 20 μM or 10 μM M21 subunit to give the molar ratios M21:myosin dimer indicated. After 15 min at 0° C., the solutions were centrifuged and the supernatants (S), resuspended pellets (P) and the suspension before centrifugation (T, total) were electrophoresed on 12% SDS/polyacrylamide gels and stained with Coomassie blue. The positions of the myosin heavy chain (MHC) and the M21 subunit are indicated. The myosin light chains migrate faster than the M21 subunit and are not visible at these loadings.
Myosin binding assays. Myosin (0.5 mg/ml, 1 μM in terms of myosin heavy chains) in 10 mM Hepes pH 7.5, 50 mM KCl, 5 mM MgCl2, 0.1% (by vol) 2-mercaptoethanol, was mixed with PP1M, M21 subunit, or fragments of the M110 and M21 subunits, at the concentrations indicated in figure legends. After incubation for 15 min at 0° C., the solutions were centrifuged for 2 min at 13,000×g, the supernatants removed, and the pellets washed twice in 10 mM Hepes pH 7.5, 50 mM KCl, 5 mM MgCl2, 0.1% (by vol) 2-mercaptoethanol before resuspension in 50 mM Tris-HCl pH 7.5, 0.1 mM EGTA, 0.03% (by mass) Brij 35, 0.6 M NaCl, 0.1% (by vol) 2-mercaptoethanol. Aliquots of the supernatant, the resuspended pellet and the suspension before centrifugation were either assayed for myosin P-light chain phosphatase activity or denatured in SDS and analysed by SDS/polyacrylamide gel electrophoresis.

T1 sequence (P10587 whole entry): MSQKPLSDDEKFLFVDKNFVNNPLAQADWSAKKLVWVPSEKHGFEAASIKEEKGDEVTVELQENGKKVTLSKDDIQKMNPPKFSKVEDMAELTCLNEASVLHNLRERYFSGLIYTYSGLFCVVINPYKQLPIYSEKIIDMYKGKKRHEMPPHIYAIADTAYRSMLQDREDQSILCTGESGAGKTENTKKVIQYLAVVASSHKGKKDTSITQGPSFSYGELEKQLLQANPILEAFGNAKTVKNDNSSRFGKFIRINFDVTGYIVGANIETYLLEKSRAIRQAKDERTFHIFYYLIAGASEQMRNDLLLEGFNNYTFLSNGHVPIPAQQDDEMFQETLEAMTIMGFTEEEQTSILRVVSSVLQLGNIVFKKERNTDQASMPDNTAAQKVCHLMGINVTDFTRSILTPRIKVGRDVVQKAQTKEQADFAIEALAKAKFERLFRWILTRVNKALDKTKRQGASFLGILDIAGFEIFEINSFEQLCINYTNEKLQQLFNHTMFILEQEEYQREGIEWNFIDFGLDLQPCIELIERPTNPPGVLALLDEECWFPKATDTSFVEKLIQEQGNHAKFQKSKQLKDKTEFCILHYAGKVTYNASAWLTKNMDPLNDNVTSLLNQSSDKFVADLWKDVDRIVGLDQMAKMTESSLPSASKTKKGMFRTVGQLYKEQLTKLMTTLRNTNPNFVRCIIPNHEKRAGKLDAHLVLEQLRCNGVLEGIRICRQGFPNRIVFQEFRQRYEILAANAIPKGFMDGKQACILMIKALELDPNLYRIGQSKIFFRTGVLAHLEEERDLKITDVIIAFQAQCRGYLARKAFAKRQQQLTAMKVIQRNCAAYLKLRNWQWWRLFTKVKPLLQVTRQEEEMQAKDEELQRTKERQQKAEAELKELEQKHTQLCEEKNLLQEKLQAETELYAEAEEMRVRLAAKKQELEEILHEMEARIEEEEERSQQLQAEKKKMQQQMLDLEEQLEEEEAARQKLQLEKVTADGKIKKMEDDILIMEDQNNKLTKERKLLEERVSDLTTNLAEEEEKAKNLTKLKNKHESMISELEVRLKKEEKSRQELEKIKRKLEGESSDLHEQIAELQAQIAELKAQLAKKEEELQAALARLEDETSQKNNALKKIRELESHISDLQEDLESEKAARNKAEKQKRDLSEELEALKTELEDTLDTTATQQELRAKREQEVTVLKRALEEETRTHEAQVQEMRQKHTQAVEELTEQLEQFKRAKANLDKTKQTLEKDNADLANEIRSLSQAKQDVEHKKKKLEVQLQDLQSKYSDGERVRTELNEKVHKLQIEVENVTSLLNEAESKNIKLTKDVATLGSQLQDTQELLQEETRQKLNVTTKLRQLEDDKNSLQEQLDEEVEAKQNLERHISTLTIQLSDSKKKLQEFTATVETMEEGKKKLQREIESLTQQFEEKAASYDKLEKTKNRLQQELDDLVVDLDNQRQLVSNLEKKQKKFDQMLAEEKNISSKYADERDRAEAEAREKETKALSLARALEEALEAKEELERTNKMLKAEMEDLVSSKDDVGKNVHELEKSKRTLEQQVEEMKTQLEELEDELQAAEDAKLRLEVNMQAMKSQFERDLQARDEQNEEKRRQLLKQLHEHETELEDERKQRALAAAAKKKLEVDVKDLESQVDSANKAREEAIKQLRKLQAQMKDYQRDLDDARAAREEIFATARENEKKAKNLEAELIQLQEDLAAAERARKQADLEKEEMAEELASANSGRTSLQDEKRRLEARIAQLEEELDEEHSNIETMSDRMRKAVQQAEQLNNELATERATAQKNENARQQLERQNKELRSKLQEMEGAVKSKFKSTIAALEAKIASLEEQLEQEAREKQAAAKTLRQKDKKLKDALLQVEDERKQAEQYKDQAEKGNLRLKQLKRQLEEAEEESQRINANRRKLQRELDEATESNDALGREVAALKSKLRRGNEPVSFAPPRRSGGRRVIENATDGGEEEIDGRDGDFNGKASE
T1 sequence (P02612 whole entry partner): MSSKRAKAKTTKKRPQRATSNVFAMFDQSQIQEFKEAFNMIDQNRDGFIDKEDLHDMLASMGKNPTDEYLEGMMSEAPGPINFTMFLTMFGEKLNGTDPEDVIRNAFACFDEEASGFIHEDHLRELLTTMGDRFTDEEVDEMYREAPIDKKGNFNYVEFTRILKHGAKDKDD
T1 sequence (P02607 whole entry partner): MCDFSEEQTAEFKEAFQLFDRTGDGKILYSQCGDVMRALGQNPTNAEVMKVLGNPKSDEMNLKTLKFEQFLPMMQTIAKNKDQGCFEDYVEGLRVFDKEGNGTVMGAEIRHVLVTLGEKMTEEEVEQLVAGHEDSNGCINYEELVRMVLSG

B1: M110 subunit: 110 kDa myofibrillar-binding subunit of PP1 (protein)
chain: MKMADAKQKRNEQLKRWIGSETDLEPPVVKRKKTKVKFDDGAVFLAACSSGDTEEVLRLLERGADINYANVDGLTALHQACIDDNVDMVKFLVENGANINQPDNEGWIPLHAAASCGYLDIAEYLISQGAHVGAVNSEGDTPLDIAEEEAMEELLQNEVNRQGVDIEAARKEEERIMLRDARQWLNSGHINDVRHAKSGGTALHVAAAKGYTEVLKLLIQARYDVNIKDYDGWTPLHAAAHWGKEEACRILVENLCDMEAVNKVGQTAFDVADEDILGYLEELQKKQNLLHSEKREKKSPLIESTANLDNNQTQKTFKNKETLIMEQEKNASSIESLEHEKADEEEEGKKDESSCSSEEEEDDDSESEAETDKAKTLANANTTSTQSASMTAPSVAGGQGTPTSPLKKFPTSTTKVSPKEEERKDESPASWRLGLRKTGSYGALAEITASKEAQKEKDSAGVIRSASSPRLSSSLDNKEKEKDGKGTRLAYVAPTIPRRLASTSDIDEKENRDSSASSIRSGSSYARRKWEEDVKKNSLNEGPTSLNTSYQRSGSFGRRQDDLVSSNVPSTASTVTSSAGLQKTLPASANTTTKSTTGSTSAGVQSSTSNRLWAEDSTEKEKDSVPTAVTVPVAPSVVNAAATTTAMTTATSGTVSSTSEVRERRRSYLTPVRDEESESQRKARSRQARQSRRSTQGVTLTDLQEAEKTIGRSRSTRTREQENEEKEKEEKEKQDKEKQEEKKESETKDDDYRQRYSRTVEEPYHRYRPTSTSTSTSSTSSLSTSTSSLSSSSQLNRPNSLIGITSAYSRSGTKESEREGGKKEEEKEEDKSQPKSIRERRRPREKRRSTGVSFWTQDSDENEQEHQSDSEEGTNKKETQSDSLSRYDTGSLSVSSGDRYDSAQGRSGSQSYLEDRKPYCSRLEKEDSTDFKKLYEQILAENEKLKAQLHDTNMELTDLKLQLEKTTQRQERFADRSLLEMEKRVSGKSQYLLGGKKSSRKKDI
recognised by digoxigenin-labelled M21 subunit in Far Western blotting (M21 subunit): recognised

B2: GST-M110-(M377-K976): GST fusion of the C-terminal 600 residues of the M110 subunit from rat aorta (protein)
chain: MASVTNAHTASTQAAPAAVTTPTLSSNQGTPTSPVKKFPTSTTKISPKEEERKDESPASWRLGLRKTGSYGALAEITASKEAQKEKDTAGVIRSASSPRLSSSLDNKEKEKDNKGTRLAYVAPTIPRRLGSTSDIEEKENRESSNLRTSSSYTRRKWEDDLKKNSSINEGSTYHRSTSNRLWAEDSTEKEKDSAPTAATILVAPTVVSAAASSTTALTTTTAGTLSSTSEVRERRRSYLTPVRDEESESQRKARSRQARQSRRSTQGVTLTDLQEAEKTIGRSRSTRTREQENEEKDKEEKEKQDKEKQEEKKESEVSREDEYKQKYSRTYDETYARYRPVSTSSSSTPSSSSLSTLGSSLYASSQLNRPNSLVGITSAYSRGLTKDNEREGEKKEEEKEGEDKSQPKSIRERRRPREKRRSTGVSFWTQDSDENEQERQSDTEDGSSKRDTQTDSVSRYDSSSTSSSDRYDSLLGRSASYSYLEERKPYGSRLEKDDSTDFKKLYEQILAENEKLKAQLHDTNMELTDLKLQLEKATQRQERFADRSLLEMEKRERRALERRISEMEEELKMLPDLKADNQRLKDENGALIRVISKLSK
modifications: left off: a dimerising Fc or GST
notes: GST fusion of the C-terminal 600 residues of the M110 subunit from rat aorta
binding to myosin (myosin): bound to myosin

B3: GST-M21: GST fusion of the chicken gizzard M21 subunit (M1-K186) (protein)
chain: MSSLFTRSKEYTRSRKSQSDSPPSSPSPIAKTLRHERLSRLEAATTPATSDSYSDRASSRSSAYSRRENRLAALSSRAEEESNRDYKKLYESALSENQKLKSKLQEAQLELADIKSKLEKAAQQKHEKTSDRSSMLEMEKREKRALERKLSEMEEEMKILTELKSDNQRLKDENGALIRVISKLSK
modifications: left off: a dimerising Fc or GST; small tags and cut ends
binding to myosin (myosin): bound to myosin

B4: MBP-M110-(R714-I1004): maltose binding protein fusion of M110-(R714-I1004) (protein)
chain: RSTRTREQENEEKEKEEKEKQDKEKQEEKKESETKDDDYRQRYSRTVEEPYHRYRPTSTSTSTSSTSSLSTSTSSLSSSSQLNRPNSLIGITSAYSRSGTKESEREGGKKEEEKEEDKSQPKSIRERRRPREKRRSTGVSFWTQDSDENEQEHQSDSEEGTNKKETQSDSLSRYDTGSLSVSSGDRYDSAQGRSGSQSYLEDRKPYCSRLEKEDSTDFKKLYEQILAENEKLKAQLHDTNMELTDLKLQLEKTTQRQERFADRSLLEMEKRVSGKSQYLLGGKKSSRKKDI
modifications: left off: large carriers
digoxigenin-labelled probe recognises the full length M21 subunit and M21(M1-L146) in Far Western blotting (M21 subunit): recognised

B5: MBP-M110-(K933-I1004): maltose binding protein fusion of M110-(K933-I1004) (protein)
chain: KLYEQILAENEKLKAQLHDTNMELTDLKLQLEKTTQRQERFADRSLLEMEKRVSGKSQYLLGGKKSSRKKDI
modifications: left off: large carriers
digoxigenin-labelled probe recognises the full length M21 subunit and M21(M1-L146) in Far Western blotting (M21 subunit): recognised

B6: M110-(R714-L934): chicken gizzard M110 fragment, residues 714-934 (protein)
chain: RSTRTREQENEEKEKEEKEKQDKEKQEEKKESETKDDDYRQRYSRTVEEPYHRYRPTSTSTSTSSTSSLSTSTSSLSSSSQLNRPNSLIGITSAYSRSGTKESEREGGKKEEEKEEDKSQPKSIRERRRPREKRRSTGVSFWTQDSDENEQEHQSDSEEGTNKKETQSDSLSRYDTGSLSVSSGDRYDSAQGRSGSQSYLEDRKPYCSRLEKEDSTDFKKLGTGRRFTTS
modifications: left off: large carriers
recognised by digoxigenin-labelled M21 subunit in Far Western blotting (M21 subunit): not

B7: MBP-M110-(R714-L934): maltose binding protein fusion of M110-(R714-L934) (protein)
chain: RSTRTREQENEEKEKEEKEKQDKEKQEEKKESETKDDDYRQRYSRTVEEPYHRYRPTSTSTSTSSTSSLSTSTSSLSSSSQLNRPNSLIGITSAYSRSGTKESEREGGKKEEEKEEDKSQPKSIRERRRPREKRRSTGVSFWTQDSDENEQEHQSDSEEGTNKKETQSDSLSRYDTGSLSVSSGDRYDSAQGRSGSQSYLEDRKPYCSRLEKEDSTDFKKLGTGRRFTTS
modifications: left off: large carriers
digoxigenin-labelled probe recognises the full length M21 subunit and M21(M1-L146) in Far Western blotting (M21 subunit): not
